Source: US20250064976A1 (BROAD INSTITUTE, published 2025)

Key:
[1] = biological target: the molecule itself; test: capsid formation (homo-oligomer)
[2] = biological target: the molecule itself; test: TEM of the HA-immunoprecipitated VLP fraction from HEK293FT cells
Source text: Successful isolation was confirmed by Coommassie staining and protein capsids were imaged using TEM as described previously.

[3] = biological target: the molecule itself; test: TEM of protein purified from E. coli

B1: human paraneoplastic antigen Ma2 (PNMA2), recombinant, purified from E. coli (other)
chain: ALALLEDWCRIMSVDEQKSLMVTGIPADFEEAEIQEVLQETLKSLGRYRLLGKIFRKQENANAVLLELLEDTDVSAIPSEVQGKGGVWKVIFKTPNQDTEFLERLNLFLEKEGQTVSGMFRALGQEGVSPATVPCISPELLAHLLGQAMAHAPQPLLPMRYRKLRVFSGSAVPAPEEESFEVWLEQATEIVKEWPVTEAEKKRWLAESLRGPALDLMHIVQADNPSISVEECLEAFKQVFGSLESRRTAQVRYLKTYQEEGEKVSAYVLRLETLLRRAVEKRAIPRRIADQVRLEQVMAGATLNQMLWCRLRELKDQGPPPSFLELMKVIREEEEEEASFENESIEEPEERDGYGRWNHEGDD
notes: Written as the monomer; Only residues 158-340 were resolved by cryo-EM; also called PNMA2 monomer; wild-type PNMA2
- binding result [1]: binds

B2: HA-tagged PNMA2 overexpressed in HEK293FT cells (other)
chain: ALALLEDWCRIMSVDEQKSLMVTGIPADFEEAEIQEVLQETLKSLGRYRLLGKIFRKQENANAVLLELLEDTDVSAIPSEVQGKGGVWKVIFKTPNQDTEFLERLNLFLEKEGQTVSGMFRALGQEGVSPATVPCISPELLAHLLGQAMAHAPQPLLPMRYRKLRVFSGSAVPAPEEESFEVWLEQATEIVKEWPVTEAEKKRWLAESLRGPALDLMHIVQADNPSISVEECLEAFKQVFGSLESRRTAQVRYLKTYQEEGEKVSAYVLRLETLLRRAVEKRAIPRRIADQVRLEQVMAGATLNQMLWCRLRELKDQGPPPSFLELMKVIREEEEEEASFENESIEEPEERDGYGRWNHEGDD
notes: also called HA-PNMA2; PNMA2-HA; not shown: HA tag at the N-terminus
- binding result [2]: binds

B3: PNMA2(340)-CCMV(30), engineered PNMA2 (other)
chain: MALALLEDWCRIMSVDEQKSLMVTGIPADFEEAEIQEVLQETLKSLGRYRLLGKIFRKQENANAVLLELLEDTDVSAIPSEVQGKGGVWKVIFKTPNQDTEFLERLNLFLEKEGQTVSGMFRALGQEGVSPATVPCISPELLAHLLGQAMAHAPQPLLPMRYRKLRVFSGSAVPAPEEESFEVWLEQATEIVKEWPVTEAEKKRWLAESLRGPALDLMHIVQADNPSISVEECLEAFKQVFGSLESRRTAQVRYLKTYQEEGEKVSAYVLRLETLLRRAVEKRAIPRRIADQVRLEQVMAGATLNQMLWCRLRELKDQGPPPSFLELMKVIREEEEEEASMSTVGTGKLTRAQRRAAARKNKRNTRVVQP
notes: Written as the monomer; The disordered C-terminal region of PNMA2 is replaced by the N-terminal 30 residues of CCMV; It was purified from E. coli and forms capsids like wild-type PNMA2; also called ePNMA2; PNMA2(1-340)-CCMV
- binding result [3]: binds
